Biological target: Recombinant P-selectin protein (UniProt P16109)
Test: SPR; BIAcore T200; recombinant P-selectin immobilised by carbodiimide chemistry on a CM4 sensor chip (ligand); PSGL-1-targeted and non-targeted liposomes as analyte

Sequence of UniProt P16109 (P16109 42-830): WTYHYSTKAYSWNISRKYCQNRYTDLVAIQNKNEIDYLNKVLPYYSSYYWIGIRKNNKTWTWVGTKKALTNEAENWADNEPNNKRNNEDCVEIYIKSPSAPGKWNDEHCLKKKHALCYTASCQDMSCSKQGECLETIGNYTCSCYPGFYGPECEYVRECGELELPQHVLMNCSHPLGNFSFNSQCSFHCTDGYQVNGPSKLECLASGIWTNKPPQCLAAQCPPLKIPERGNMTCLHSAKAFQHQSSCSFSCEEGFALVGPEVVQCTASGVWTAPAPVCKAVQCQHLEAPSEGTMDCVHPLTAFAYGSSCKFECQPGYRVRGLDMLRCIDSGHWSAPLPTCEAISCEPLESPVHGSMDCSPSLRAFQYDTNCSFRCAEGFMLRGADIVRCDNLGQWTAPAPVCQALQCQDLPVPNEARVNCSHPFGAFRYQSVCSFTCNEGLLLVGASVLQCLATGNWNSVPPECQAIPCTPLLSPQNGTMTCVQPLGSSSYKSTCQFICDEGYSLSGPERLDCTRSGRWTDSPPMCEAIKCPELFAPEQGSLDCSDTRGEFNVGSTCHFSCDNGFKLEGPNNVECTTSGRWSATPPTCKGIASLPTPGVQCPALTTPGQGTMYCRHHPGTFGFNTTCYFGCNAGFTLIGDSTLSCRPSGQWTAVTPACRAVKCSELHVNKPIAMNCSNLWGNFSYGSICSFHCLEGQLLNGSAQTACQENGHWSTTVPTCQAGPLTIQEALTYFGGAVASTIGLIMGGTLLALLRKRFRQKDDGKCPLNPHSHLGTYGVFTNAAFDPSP

- fold increase in binding against non-targeted liposomes: 8 fold
Substance: Recombinant P-selectin glycoprotein ligand-1 (PSGL-1) protein, conjugated to the surface of liposomes (from UniProt Q14242 42-412)

Source: article PMC7699624
